The text below walks through data of PMC8526979, “The predicted stem-loop structure in the 3′-end of the human norovirus antigenomic sequence is required for its genomic RNA synthesis by its RdRp” (The Journal of Biological Chemistry, 2021).

Data set [1] concerns His-RdRp (NS7, RNA-dependent RNA polymerase) (Human norovirus GII.P3_GII.3 U201 strain). Description: competition. The conditions noted are these: 50 mM Tris-HCl pH 7.4, 1.7% glycerol, 5 mM beta-mercaptoethanol, 0.5 ug/ul yeast RNA, 30 C 10 min, 20 ul; native PAGE at 4 C.
The target in data set [2] is T1, HuNV RdRp (His-RdRp; GII.P3 RdRp) (Norwalk-like virus, UniProt Q8JXI4).
T1 construct: mature NS7 RdRp from ORF1 genome polyprotein, cDNA nt 3581-5113; N-terminal His6 tag (pET28b), E. coli ArcticExpress (DE3); 57 kDa by SDS-PAGE
Description: RNA synthesis, dsRNA product after S1 nuclease, native PAGE with SYBR Green II. Format: biochemical.

In data set [1], 31AS RNA had a binding signal (% complex remaining) of 47.3. On the same count and under the same terms, for 100AS RNA the value was 13.5. In general, IC50 refers to the concentration that gives 50% inhibition. A lower IC50 goes with inhibition by little substance. Regarding `C[C@@]1(O)[C@H](O)[C@@H](COP(=O)(O)OP(=O)(O)OP(=O)(O)O)O[C@H]1n1ccc(N)nc1=O` [2′CM-CTP, 2′-C-methylcytidine triphosphate], the IC50 in data set [2] was 57 ± 20 µM.
